Assay results reported in patent US20170355771A1 (Biogen, published 2017).
Positions count from the first letter of the chain named.

B1: humanized 34D10 Fab L0/H2 (Fab, V domains shown)
VH: EVQLVESGGGLVKPGGSLRLSCAASGFTFSAYAMSWVRQAPGKGLVWVASISSGGTTYYPDSVKRQFTISRDNAKNTLYLQMNSLRAEDTAVYYCTRGGDYGYALDYWGQGTLVTVSS
VL: EIVMTQSPATLSVSPGERATLSCRASSSVNYMYWYQQKPGQAPRLLIYYTSNLAPGIPARFSGSGSGTEFTLTISSLQSEDFAVYYCQQFSSSPWTFGQGTKVEIK
notes: Fab; also called VL0/VH2
B2: humanized 34D10 Fab L1/H3 (Fab, V domains shown)
VH: B1 VH with E6Q, G16E, V46E, Q66R
VL: B1 VL with M4L, I57V
notes: Fab; only variable domains are tied by name; also called VL1/VH3
B3: humanized 34D10 Fab L0/H5 (Fab, V domains shown)
VH: B1 VH with Q3K, V46E, Q66R, K75R
VL: B1 VL
notes: Fab; also called VL0/VH5
B4: mouse Fab (34D10) (Fab, V domains shown)
VH: EVKLVESGGGLVKPGGSLKLSCAASGFTFSAYAMSWVRQTPEKRLEWVASISSGGTTYYPDSVKRRFTISRDNARNILYLQMSSLRSEDTAMYYCTRGGDYGYALDYWGQGTSVTVSS
VL: ENVLTQSPAIMSASLGEKVTMSCRASSSVNYMYWYQQKSDASPKLWIYYTSNLAPGVPARFSGSGSGNSYSLTISSMEGEDAATYYCQQFSSSPWTFGGGTKLEIK
notes: Fab; also called mouse 34D10 Fab
B5: FVII-250/Fab-062 (other)
chain: ANAFLEELRPGSLERECKEEQCSFEEAREIFKDAERTKLFWISYSDGDQCASSPCQNGGSCKDQLQSYICFCLPAFEGRNCETHKDDQLICVNENGGCEQYCSDHTGTKRSCRCHEGYSLLADGVSCTPTVEYPCGKIPILEKRNASKPQGRIVGGKVCPKGECPWQVLLLVNGAQLCGGTLINTIWVVSAAHCFDKIKNWRNLIAVLGEHDLSEHDGDEQSRRVAQVIIPSTYVPGTTNHDIALLRLHQPVVLTDHVVPLCLPERTFSERTLAFVRFSLVSGWGQLLDRGATALELMVLNVPRLMTQDCLQQSRKVGDSPNITEYMFCAGYSDGSKDSCKGDSGGPHATHYRGTWYLTGIVSWGQGCATVGHFGVYTRVSQYIEWLQKLMRSEPRPGVLLRAPFPGGGGSGGGGSGGGGSGGGGSGGGGSGGGGSEIVMTQSPATLSVSPGERATLSCRASSSVNYMYWYQQKPGQAPRLLIYYTSNLAPGIPARFSGSGSGTEFTLTISSLQSEDFAVYYCQQFSSSPWTFGQGTKVEIKRTVAAPSVFIFPPSDEQLKSGTASVVCLLNNFYPREAKVQWKVDNALQSGNSQESVTEQDSKDSTYSLSSTLTLSKADYEKHKVYACEVTHQGLSSPVTKSFNRGEC
heavy: EGTSESATPESGPGSEPATSGSETPGTSESATPESGPGSEPATSGSETPGTSESATPESGPGTSTEPSEGSAPGSPAGSPTSTEEGTSESATPESGPGSEPATSGSETPGTSESATPESGPGSPAGSPTSTEEGSPAGSPTSTEEGTSTEPSEGSAPGTSESATPESGPGTSESATPESGPGTSESATPESGPGSEPATSGSETPGSEPATSGSETPGSPAGSPTSTEEGTSTEPSEGSAPGTSTEPSEGSAPGSEPATSGSETPGTSESATPESGPGTSTEPSEGSAPEVQLVESGGGLVKPGGSLRLSCAASGFTFSAYAMSWVRQAPGKGLVWVASISSGGTTYYPDSVKRQFTISRDNAKNTLYLQMNSLRAEDTAVYYCTRGGDYGYALDYWGQGTLVTVSSASTKGPSVFPLAPSSKSTSGGTAALGCLVKDYFPEPVTVSWNSGALTSGVHTFPAVLQSSGLYSLSSVVTVPSSSLGTQTYICNVNHKPSNTKVDKKVEPKSC
notes: also called Fab-250/Fab-062 (as printed once)
B6: affinity matured h34D10 Fab VH116/VL0 (Fab, V domains shown)
VH: B1 VH with N73D
VL: B1 VL
notes: Yeast-purified Fab
B7: affinity matured h34D10 Fab VH118/VL0 (Fab, V domains shown)
VH: B1 VH with E1G, T112A
VL: B1 VL
notes: Yeast-purified Fab
B8: affinity matured h34D10 Fab VH108/VL0 (Fab, V domains shown)
VH: B1 VH with G54D, K75R, G102S
VL: B1 VL
notes: Yeast-purified Fab
B9: affinity matured h34D10 Fab VH106/VL0 (Fab, V domains shown)
VH: B1 VH with S7C, G102S
VL: B1 VL
notes: Yeast-purified Fab
B10: affinity matured h34D10 Fab VH119/VL0 (Fab, V domains shown)
VH: B1 VH with E1G
VL: B1 VL
notes: Yeast-purified Fab
B11: affinity matured h34D10 Fab VH109/VL0 (Fab, V domains shown)
VH: B1 VH with Y58D
VL: B1 VL
notes: Yeast-purified Fab
B12: affinity matured h34D10 Fab VH110/VL0 (Fab, V domains shown)
VH: B1 VH with S30N
VL: B1 VL
notes: Yeast-purified Fab
B13: affinity matured h34D10 Fab VH111/VL0 (Fab, V domains shown)
VH: B1 VH with S30N, K43E
VL: B1 VL
notes: Yeast-purified Fab
B14: affinity matured h34D10 Fab VH103/VL0 (Fab, V domains shown)
VH: B1 VH with M82V, G102S
VL: B1 VL
notes: Yeast-purified Fab
B15: affinity matured h34D10 Fab VH100/VL0 (Fab, V domains shown)
VH: B1 VH with S30G, G102S
VL: B1 VL
notes: Yeast-expressed, protein A purified, then made into Fab
B16: affinity matured h34D10 Fab VH112/VL0 (Fab, V domains shown)
VH: B1 VH with K43E, S50G
VL: B1 VL
notes: Yeast-purified Fab
B17: affinity matured h34D10 Fab VH104/VL0 (Fab, V domains shown)
VH: B1 VH with G102S, Q110R
VL: B1 VL
notes: Yeast-purified Fab
B18: affinity matured h34D10 Fab VH115/VL0 (Fab, V domains shown)
VH: B1 VH with E1G, N73D
VL: B1 VL
notes: Yeast-purified Fab
B19: affinity matured h34D10 Fab VH107/VL0 (Fab, V domains shown)
VH: B1 VH with G16E, K43E, G102S
VL: B1 VL
notes: Yeast-purified Fab
B20: affinity matured h34D10 Fab VH101/VL0 (Fab, V domains shown)
VH: B1 VH with K64E, G102S
VL: B1 VL
notes: Yeast-purified Fab
B21: affinity matured h34D10 Fab VH114/VL0 (Fab, V domains shown)
VH: B1 VH with V2M
VL: B1 VL
notes: Yeast-purified Fab
B22: affinity matured h34D10 Fab VH105/VL0 (Fab, V domains shown)
VH: B1 VH with G102S
VL: B1 VL
notes: Yeast-purified Fab
B23: affinity matured h34D10 Fab VH121/VL0 (Fab, V domains shown)
VH: B1 VH with K43E
VL: B1 VL
notes: Yeast-purified Fab
B24: affinity matured h34D10 Fab VH113/VL0 (Fab, V domains shown)
VH: B1 VH with S50G
VL: B1 VL
notes: Yeast-purified Fab
B25: affinity matured h34D10 Fab VH117/VL0 (Fab, V domains shown)
VH: B1 VH with V2A
VL: B1 VL
notes: Yeast-purified Fab
B26: affinity matured h34D10 Fab VH102/VL0 (Fab, V domains shown)
VH: B1 VH with G102S, S118F
VL: B1 VL
notes: Yeast-purified Fab
B27: affinity matured h34D10 Fab VH120/VL0 (Fab, V domains shown)
VH: B1 VH with K13E
VL: B1 VL
notes: Yeast-purified Fab

Target: T1, biotinylated human GPIIb/IIIa ectodomain protein (human, UniProt P08514 32-993; P05106 27-718, biotinylated (site not stated))
T1 construct: extracellular domain; also called purified GPIIb/IIIa
Assay: SPR, biotinylated GPIIb/IIIa ectodomain on streptavidin chip, Fab as analyte, 1:1 model

T1 sequence (P08514 32-993, chain 1 of 2): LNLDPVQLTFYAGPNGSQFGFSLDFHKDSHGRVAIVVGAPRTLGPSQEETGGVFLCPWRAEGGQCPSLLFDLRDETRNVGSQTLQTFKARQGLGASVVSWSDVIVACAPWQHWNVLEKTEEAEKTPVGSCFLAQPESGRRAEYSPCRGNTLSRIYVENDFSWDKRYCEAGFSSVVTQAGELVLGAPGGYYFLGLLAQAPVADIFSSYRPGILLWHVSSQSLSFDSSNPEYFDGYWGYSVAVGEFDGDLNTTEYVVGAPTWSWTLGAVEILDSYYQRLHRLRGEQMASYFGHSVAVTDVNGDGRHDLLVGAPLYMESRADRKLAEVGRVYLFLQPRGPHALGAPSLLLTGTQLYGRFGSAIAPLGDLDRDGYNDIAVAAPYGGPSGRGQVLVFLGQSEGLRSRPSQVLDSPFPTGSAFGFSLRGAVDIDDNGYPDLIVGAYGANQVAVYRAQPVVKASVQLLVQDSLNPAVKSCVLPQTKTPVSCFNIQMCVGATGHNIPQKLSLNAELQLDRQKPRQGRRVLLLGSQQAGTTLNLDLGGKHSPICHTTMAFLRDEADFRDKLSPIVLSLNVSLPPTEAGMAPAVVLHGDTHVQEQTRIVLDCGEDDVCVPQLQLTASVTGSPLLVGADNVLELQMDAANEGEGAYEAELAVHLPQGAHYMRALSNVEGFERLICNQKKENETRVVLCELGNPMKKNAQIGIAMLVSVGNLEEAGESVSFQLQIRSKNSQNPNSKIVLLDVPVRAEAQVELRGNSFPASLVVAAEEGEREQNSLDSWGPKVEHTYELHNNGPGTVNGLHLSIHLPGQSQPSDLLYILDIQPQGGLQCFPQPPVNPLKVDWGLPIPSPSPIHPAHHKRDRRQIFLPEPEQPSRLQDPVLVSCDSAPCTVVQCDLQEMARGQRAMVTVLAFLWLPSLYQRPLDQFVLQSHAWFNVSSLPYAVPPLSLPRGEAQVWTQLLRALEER
T1 sequence (P05106 27-718, chain 2 of 2): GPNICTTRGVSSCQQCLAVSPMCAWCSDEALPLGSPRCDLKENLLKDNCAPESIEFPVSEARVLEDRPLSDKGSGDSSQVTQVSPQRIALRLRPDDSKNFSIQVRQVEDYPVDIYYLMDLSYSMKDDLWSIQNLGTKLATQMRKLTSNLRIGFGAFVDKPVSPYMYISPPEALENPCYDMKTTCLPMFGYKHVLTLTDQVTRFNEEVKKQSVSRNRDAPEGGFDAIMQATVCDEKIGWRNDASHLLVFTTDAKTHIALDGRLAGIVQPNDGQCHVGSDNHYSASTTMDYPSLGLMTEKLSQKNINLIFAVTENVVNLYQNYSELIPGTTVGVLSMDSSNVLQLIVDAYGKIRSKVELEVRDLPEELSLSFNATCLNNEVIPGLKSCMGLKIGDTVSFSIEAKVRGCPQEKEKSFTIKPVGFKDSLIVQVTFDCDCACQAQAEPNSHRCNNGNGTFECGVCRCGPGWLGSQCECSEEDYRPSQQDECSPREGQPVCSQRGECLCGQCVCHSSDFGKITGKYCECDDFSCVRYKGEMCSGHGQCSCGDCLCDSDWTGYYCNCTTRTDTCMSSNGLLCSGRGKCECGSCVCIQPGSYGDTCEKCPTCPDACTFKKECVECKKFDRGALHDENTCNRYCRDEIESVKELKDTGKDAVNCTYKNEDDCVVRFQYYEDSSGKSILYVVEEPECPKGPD

Kd [nM]	Binder
2.8	B1
110	B2
5.3	B3
2.8	B4

Target: T1, biotinylated human GPIIb/IIIa …
Assay: SPR, biotinylated GPIIb/IIIa ectodomain on streptavidin chip, fusion protein as analyte, 1:1 model
Excerpt: (§1) The GPIIb/IIIa ectodomain protein was immobilized on an SPR chip coated with streptavidin (GE Healthcare).

Kd [nM]	Binder
730	B5

Target: T2, GPIIb/IIIa (SEQ ID NOs: 23 and 24) (human, UniProt P08514 32-994; P05106 27-716)
T2 construct: also called GPIIb/IIIa complex
Assay: Bio-Layer Interferometry (OctetRed), monovalent format, yeast-purified Fab; apparent monovalent affinity
Description: (§2) BLI was performed on the OctetRed94 instrument, manufactured by ForteBio, according to standard procedures.

T2 sequence (P08514 32-994 limits assumed, chain 1 of 2): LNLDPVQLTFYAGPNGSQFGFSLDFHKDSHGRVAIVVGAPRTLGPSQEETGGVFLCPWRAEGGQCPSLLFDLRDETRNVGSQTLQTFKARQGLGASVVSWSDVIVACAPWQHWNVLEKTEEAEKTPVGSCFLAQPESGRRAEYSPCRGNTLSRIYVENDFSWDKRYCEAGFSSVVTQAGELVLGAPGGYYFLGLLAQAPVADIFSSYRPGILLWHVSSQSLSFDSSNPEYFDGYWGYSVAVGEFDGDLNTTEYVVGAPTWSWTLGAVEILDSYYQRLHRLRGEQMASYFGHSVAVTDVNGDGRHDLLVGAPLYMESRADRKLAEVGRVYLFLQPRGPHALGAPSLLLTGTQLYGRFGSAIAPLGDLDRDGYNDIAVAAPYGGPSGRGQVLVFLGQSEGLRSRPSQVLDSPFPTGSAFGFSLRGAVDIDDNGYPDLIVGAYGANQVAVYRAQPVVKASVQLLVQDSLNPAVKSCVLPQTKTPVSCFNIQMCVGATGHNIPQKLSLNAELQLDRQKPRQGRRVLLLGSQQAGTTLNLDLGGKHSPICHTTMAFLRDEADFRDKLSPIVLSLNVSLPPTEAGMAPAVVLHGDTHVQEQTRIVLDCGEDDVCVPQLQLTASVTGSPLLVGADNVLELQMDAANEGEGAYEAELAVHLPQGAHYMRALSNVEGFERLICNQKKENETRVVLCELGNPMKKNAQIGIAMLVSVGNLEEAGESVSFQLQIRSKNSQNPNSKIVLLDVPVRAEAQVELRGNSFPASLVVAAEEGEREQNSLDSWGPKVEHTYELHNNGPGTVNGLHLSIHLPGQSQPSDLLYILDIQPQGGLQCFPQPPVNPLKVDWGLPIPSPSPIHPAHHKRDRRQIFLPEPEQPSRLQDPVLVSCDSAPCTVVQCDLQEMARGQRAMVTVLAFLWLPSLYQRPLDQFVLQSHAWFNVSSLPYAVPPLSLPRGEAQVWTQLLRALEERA
T2 sequence (P05106 27-716 limits assumed, chain 2 of 2): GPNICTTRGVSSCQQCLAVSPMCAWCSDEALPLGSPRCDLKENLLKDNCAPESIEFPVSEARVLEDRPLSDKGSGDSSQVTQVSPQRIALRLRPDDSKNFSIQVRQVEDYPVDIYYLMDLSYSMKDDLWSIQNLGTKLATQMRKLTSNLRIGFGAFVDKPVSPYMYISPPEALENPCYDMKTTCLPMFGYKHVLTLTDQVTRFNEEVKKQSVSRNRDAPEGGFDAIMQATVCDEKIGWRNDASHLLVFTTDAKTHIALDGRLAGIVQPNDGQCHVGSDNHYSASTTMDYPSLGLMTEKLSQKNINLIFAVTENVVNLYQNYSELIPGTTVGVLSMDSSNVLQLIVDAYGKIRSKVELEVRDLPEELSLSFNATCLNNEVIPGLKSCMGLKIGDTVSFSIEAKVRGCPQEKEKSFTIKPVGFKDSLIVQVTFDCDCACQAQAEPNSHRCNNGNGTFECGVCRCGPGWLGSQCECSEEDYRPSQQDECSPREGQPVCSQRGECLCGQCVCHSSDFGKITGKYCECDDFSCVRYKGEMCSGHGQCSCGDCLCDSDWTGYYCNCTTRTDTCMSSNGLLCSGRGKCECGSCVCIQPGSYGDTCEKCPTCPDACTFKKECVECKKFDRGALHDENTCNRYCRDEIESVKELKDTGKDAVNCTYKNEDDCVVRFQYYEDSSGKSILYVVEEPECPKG

Kd [nM]	Binder
155	B1
130	B6
200	B7
49	B8
44	B9
140	B10
120	B11
130	B12
150	B13
37	B14
29	B15
160	B16
31	B17
120	B18
48	B19
25	B20
130	B21
42	B22
230	B23
160	B24
160	B25
36	B26
240	B27

Target: T2, GPIIb/IIIa (SEQ ID NOs: 23 and 24)
Assay: Bio-Layer Interferometry (OctetRed), monovalent format, yeast-purified Fab; apparent dissociation rate Kdis
Description: as §2

koff [s⁻¹]	Binder
0.0563	B1
0.0432	B6
0.0478	B7
0.0193	B8
0.0127	B9
0.0482	B10
0.031	B11
0.0337	B12
0.0352	B13
0.0103	B14
0.00822	B15
0.0352	B16
0.0113	B17
0.0429	B18
0.0142	B19
0.00836	B20
0.0393	B21
0.0114	B22
0.0494	B23
0.0372	B24
0.0435	B25
0.00977	B26
0.0492	B27

Target: T1, biotinylated human GPIIb/IIIa …
Assay: surface plasmon resonance, biotinylated GPIIb/IIIa ectodomain on a streptavidin chip, analyte at 6.2 to 500 nM, 1:1 binding model
Excerpt: as §1

koff [s⁻¹]	kon [M⁻¹ s⁻¹]	Binder
0.0174	23700	B5
